Data set [1] deals with amyloidogenic peptide Aβ10-35 (UniProt P05067). The experiment in a line: cell-based or functional assay.
Data set [2] deals with the molecule itself. As to the kind of experiment: preliminary studies, self-aggregation (data not shown).

*1 amine or outer side, *2 acyl side, *3 side chain or, on linkers, in order; H or OH if unused. Where no end group is shown, it is not given here. [ ]: non-standard residue; d: D form. Dbzg = C-alpha,alpha-dibenzylglycine, O=C(C(Cc1ccccc1)(Cc1ccccc1)N[*:1])[*:2]; Dibg = C-alpha,alpha-diisobutylglycine, CC(C)CC(CC(C)C)(N[*:1])C(=O)[*:2]; Dpg = CCCC(N)(CCC)C(=O)O

Sequence of amyloidogenic peptide Aβ10-35 (P05067 681-706): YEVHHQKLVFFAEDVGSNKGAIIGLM

In turn, “AMY-1: Lys-Dibg-Val-Dbzg-Phe-Dpg-(Lys)6-NH2 (peptide)” had an inhibition of aggregation (amyloid fibril formation) in data set [1] of 5 µM.

B1: AMY-2: (Lys)7-Dibg-Val-Dbzg-Phe-Dpg-NH2 (peptide)
peptide: KKKKKKK[Dibg]V[Dbzg]F[Dpg]-NH2
modifications: N-terminus assumed
SMILES: CCCC(CCC)(NC(=O)[C@H](Cc1ccccc1)NC(=O)C(Cc1ccccc1)(Cc1ccccc1)NC(=O)[C@@H](NC(=O)C(CC(C)C)(CC(C)C)NC(=O)[C@H](CCCCN)NC(=O)[C@H](CCCCN)NC(=O)[C@H](CCCCN)NC(=O)[C@H](CCCCN)NC(=O)[C@H](CCCCN)NC(=O)[C@H](CCCCN)NC(=O)[C@@H](N)CCCCN)C(C)C)C(N)=O
notes: Synthetic beta-strand mimic based on Abeta16-21 (KLVFFA), with the oligolysine stretch at the N-terminus
As to B1, the binding result in data set [2] is reported as “binds”.
